Test results: a protein production outcome set (Wang et al. 2014)

Assay: label from the status in PepcDB records

Sequence	protein production
MKTLHTDVAIIGAGTAGLAAYRAARAAGKRALLIEGGQYGTTCARVGCMPSKLLIAAAEAAHAAAHGGPFGVHIDGAVRIDGAQVMARVKSERDRFVGFVLEGVENIPAEDKLRGMARFVEDTVLRVDGHTEVRAGSVVIASGSRPAVPPPFLALGDRLVVNDDVFAWDTLPARVAVFGPGVIGLELGQALARLGVQVRVFGVSGSLGGITDPRVRQSARKAFQQEFYLDPDARVLETKRVGDEVEVRYVALDNTERTERFDYALVATGRRPNVDGLDLHNTSLALDARGVPHFDRHTMQAGQAPVFIAGDANADAPLLHEAADEGRIAGENAARYPDVAPGLRRAALGVVFSDPQIALVGTPFARLESGTFVAGEVDFGDQGRSRVMLRNRGMLRVYADIESGRFVGAEMVGPSAEHIGHLLAWAAQQSLTVAQMLEMPFYHPVVEEGLRTALRDAAARLAQARPQRLAA	failed
MEALAMAGVDYQEWGLSIEEWELQESVVPLHLLADDFKEEEQEEDHQDNDDDDRVLDGLAVKQSVTRDIRASVGKFIEQSMSHMIVHLKQLKFLTLLLENFLFTHVLDFLL	failed
MMDAMTDPITFAATAAGRDAAHPLRDISFGEIGIATERKPDGTIYVRSTTTLTDYPVRITDRLHHFAETAPDRVFMAERNGEGGWRRISYAEMLRAAQTIASALIARGLSAERPVMILSGNSIDHAMVMFGALYAGVAMCPVSPPYSLVSKDYGKLRHIVGLLTPGLIFADDITAFAPAILATVPEDVELAATRGEVKGRKVTSLAELLATPEHPELAAKHEAIGHDTIAKFLLTSGSTGNPKAVINTQRMICANQVMIREAMAFLKDEPPVIVDWLPWNHTFGGNHNIGLTLFNGGSMYIDDGKPTPAGIASTIRNLREIAPTVYFNVPKGYESLLPVLREDQQLRKLFFSRLHAMFFSGASLAAHVWNGLDEVAVAETGARVPMLTGLGATETAPFFMSVTPQTSRSGHVGLPVPGNEAKLVPNNGKLEVRAKGPNITPGYWRAPELTDKAFDEEGFYKLNDALKPVDANDLSRGFDFDGRISEDFKLASGTWVSVGPLRAKFIAACASLVRDVVIAGLDRDYVTALAILDPDGCKLINATLPLEDLAGMAADHLIREAFRERFATLLTQATGSSNRVTRAVLLGEPLSIDKGEITDKGSVNQRAVLEYRASLIADLYADPPPAHVIALELEHHHHHH	not failed
MTPAARLSAAIELIDTIERDRVPAAKALKEWGTAHRFAGSGDRAAIAGLVWDVLRRYASSAFLMDADTARARLIGMLRLERDMDAATMAALFDGSRFAPAPLTEAEQAALSHRSLRDAPAAIAGDYPEWLDPHLAKVFGEDRAAEAAAMASRAPLDLRVNTLKSNRDKVLRALAHLHAKPTPWSATGLRIELSADARNPGIQAEEDFIKGAVEVQDEGSQLAAQFTAAKPGEQVIDLCAGAGGKTLALAAMMQGKGRLIATDSDKRQLAPIHERLSRAGVHNADVRTPKGEADPLADISATADLVVIDAPCTGTGTWRRNPDAKWRMRPGALEIRLRDQAEVLERAVPLVKLGGRIAYITCSVLAEENGEQVRAFIGRHPEFAVVPPEQIASVLWDKAEDFAKAALQSPEGWLMTPRRTGTDGFFVSVLKKTA	failed
MSRIASHTQGLFADLREWIDLRVDLAILEMEERLDAFKNDLALGLTVAVFAFFAAFFSLTTVALGVGWLLGHPFWGFLAVSVALILIIVTLRVTKPALMPPSNLFESLRGERAASDEGPSSRPASAAVDEADGAEAQASAPDVKA	failed
MPRLARSLPLLLGLGLAAWAGATDGPLPVPADGVKLEAPTTASPSIRLVIPAEEIERRALAEYRQIIDNAAREGALAPDSVPDLARIRAIVQRLVPHAPRWNPDAAHWQWEVNLIGAAQVNAFCMPGGKIAVFSGLLERFRLTDDELAMALGHEIAHALREHARARAGQREITNLGANVISQLFGFGNRGDAGFGEGAKMHLLAFSRAEETEADLIGMDIAARAGFDPRAALTLWQKMGSIGGAEQKQFLSTHPSGRSRMTVLSRHLPETLPLYADALRMPMAKLPEYRSNMQYLGAAPVDNGDEAPMRPMVQQ	failed
MEKYPEIQQMRSKMREGDDTNEFKIRPLKGLSHPSGNLQMQRFQEDRRERIHSIRKRENQDGRLDLIGVVGEITVVIDDVVYEEEKLRKVVFTMKG	not failed
MRLLYVIKKENPMDQMPNCPKCQSEYVYHDSINFVCPDCGNEWDNNEIQESDDDQLIVKDSNGNLLAEGDNVLLIKDLKLKGSSEVLKKGTKFKNIRLVNGDHNVDCGKIMLKSEFLKKA	failed
MGDEDLIELKFRLADGTDIGPSKYSQFMTVASLKEKIIAQWPKDKENAPKMINEVKLINGGKILENNKTLSEARSLITIGELPGIVTTMHVVLRPPLFEKKKEKLQNDPPRKSHCVCCIL	failed
MSQSPSPPDSPSASPDSPSASPMHAFLLCAGFGTRMRPVTAETPKSLVTVAGRPLLDHLLDELTAWSALTEIHVAVNHEDAPAFREWAAGHRADLETQGIGLHLHDDGVEAPDDQLGCVGDLRFLLDAVGLPADGALVSGGDSLYRFPLAPLLNAYDGTTNRVLALHEPDPERRAQSSVLQLDGPTVTAVHDDPTGTASTRICPSWLLLSAEGLGAIVPYLDDGGPPDTLGAFLDRLARTHSVQAHRLPQTGHLRLHCNTPDDLEHARKLLRKGPRHVLGPAPVRASLPEPAS	failed
MSIKVEDYFAPETFQRMKAFADKQETPFVVIDKQTIADAYDQLTDCFPFARIYYAVKANPATEITELLRDKGSNFDIASIYELDKVMKTGVGPERISYGNTIKKSKDIRYFYEKGVRLFATDSEADLRNIAKAAPGAKVYVRILTEGSTTADWPLSRKFGCQTDMAMDLLILARQLGLEPYGISFHVGSQQRDISVWDAAIAKVKVIFERLKEEDGIVLKMINMGGGFPANYITKTNDLETYAEEIIRFLKEDFGDDLPEIILEPGRSLIANAGILVSEVVLVARKSRTAVERWVYADVGKFSGLIETMDESIKFPIWTEKQGEMEEVVIAGPTCDSADIMYEHYKYGLPLNLASGDRLYWLSTGAYTTSYSAVEFNGFPPLKAFYL	failed
MLKTSALAPCGKPMLIWPSQTSARRHGFSEASYCLWRSKFGGMSMPDAKRLKDLEAENTRLKKLLAEQVFQNDLIKDALQKMVSAPARRALVREWIAGGASERCALAAIGMSASALRYRPREDRNVELRERILALAHRHRRYGVGMISLKLRQEGRLVNYKRVERLYCEQQLQVRRRKRKKVPLGERAPLLRPTKANPVWSMDVVFDRTAEGRAIKCLVIVDDATHEAVAIDVERAISGHGVVRVLDRLAHSRGLPKMIRTDNGKEFCGKAMVAWAHANRVQLRQIQPGKPNQNAYVESFNGRLRDECLNKHGFPTLLHARTEIERWRREYNEHRPKKTIGGMTPAAYAQQLANSDIINPGL	failed
MSKISDNHDHSALQFMKKKVRENGSRDIRQIYVPAYTQVPLPNNMKKQIFFWLGALIFFILFMLVFGSILLPFVAGIVLAYFLNPIVQLLEKFRIRRVFGTILITLFIVVVFVAALIILIPIISWQIQQFMNDGLPVYINRIQTFFVEHDFDWVRRYFGSDPNELQSNIKGLLGQSSDFITSLLNSLLKSGKSLVNIVSLFVVAPVVAFYMLLDWPRMVTAVDSLIPRDHLETVRSIFHEMDRAIAGFVRGQGTACLILGGYYAIGLTITELNFGLLIGMFIGLISFVPYIGTMSGFLLSVGVAWVQFYPNNWGWIIVVMVIFLIGQFIEGYILQPKLVGSSVGLHPVWLMFALFAFSSLFGFTGMLIAVPAAAAVGVLVRFALHTYLNSQMYSRSGNSERLE	failed
MMKKAGLYIHIPFCLQKCNYCDFFSVRAGRFKNILSGHLSPFVLRLAEDIKIQADKYSINEWDTVYIGGGTPSLLSPDDLYYLSSQIPAAQKNPHREFTVEINPEDLTKDFLSAAVSGGINRFSVGIQSLNDEVLSACKRRGCRKMSLSALELLRSQKGLILSCDLIAGLNKQSLGILKDDIQTLLHFKPEHFSLYALCSNTKLPPEKDDEIAELWSYGKDILEKNSYNKYEVSNFSYKNLYKSIHNEKYWRLEDYIGVGPGAFGSIFFDRKVLHANAHANALRFSAIKNIEKWMTLKNRDEVYEYETIDEKEFIEEAFMMGLRLTEGIDRSFFKSRFGKDISVFAGKTISKWLDRNEAVLTEKRFYLTEKGFLYLNLFLQELFQEIDSLF	failed
MNNISSNIKKVLFIFLVIFFVTISYITYFELIVSPKIVNNTDNKRLWAKRNEVLRGTIYDRNKKALTKSERVNTLTQKREYTGGAMFSHVLGYVNPQYGLTGLEAKYDQYLMGADDQPINQYLMELIKNKGKVSPEDKRGEDVVTTLDYNIQQQAYNLLGDNKGSVVVLNPKTGEILAMVSKPSYDPNDDALKASWAALNSNPDRPLLNRAVSGLYPPGSTFKTVTAISALENISGIQNETFNDPGQLVFNSTESLRDFGGESFGDIGFKHAYVVSSNVVFGKIGLQLGNNNLRQTAESFYFNKNIPCDGIVIDKSKFPTLKSYEKGNMAQSAIGQASVLATPIQMALVASTVANDGVMMKPHVVNEILSPNGDKIKSIEPESIGNIVSKENAATMKDFMRNVVEDGTGVNAAVEGIQVAGKTGTADHKVNGKDATPHSWFIGFAPYDNPQVAIAVIVEDGGQGGKAAAGIASKVIQTALQK	failed
MAETAPLRVQLIAKTDFLAPPDVPWTTDADGGPALVEFAGRACYQSWSKPNPKTATNAGYLRHIIDVGHFSVLEHASVSFYITGISRSCTHELIRHRHFSYSQLSQRYVPEKDSRVVVPPGMEDDADLRHILTEAADAARATYSELLAKLEAKFADQPNAILRRKQARQAARAVLPNATETRIVVTGNYRAWRHFIAMRASEHADVEIRRLAIECLRQLAAVAPAVFADFEVTTLADGTEVATSPLATEALEHHHHHH	not failed
MAVTPVLACYRTCDAAIGGITAWQVTTGPDGPRTNVVGSCPLGDASWVTPLYHLVVVLCERDGTLVVVHPGREFQVVGTVQLKGQWPCHGAVDPTGRLMAVADYASGQVEFVDLSDPTRPTVRNVLDLGQGCVFPRPVADRQEGPHAHQVTWLDRAHLAVTDLGADRINVVRWSEAGPEIIGSLKTPAGCGPRHLTLTEDGRKQILTVGGALSGTVSTWSRPTGHDMWAREWRFVQETASSRWSHTGSQERRSACTPASPSAIVTTPDGRHFVANRSVGSIGILGGRFGRINLIDEFDTTGANPRDITVTTQNGTRVWVALPEEGQIAIHLRDEDTGGWQVETTIDQPGAMRVIVGPTTG	failed
MRFSSIFKIIILNIFISKMAHAAVCEERYPADSEECQYVQELEQKAEQGDESAQFALGSWYAEGRYVKPDYKLAIKWLEKAGKQGSDFSYFILGYHYNYGENFPLSRQKALEWYRKAAELGDSSTQEILGDAYMYGDGFPQNTQLALEWYRKAASPTNDAGVVRGQGSASSAQFKLGVMYAHGQGVPQDYQQTAILMRKAAENMYYPAQLYLGVAYFYGEGVPQDYRQAVYWLNEGIPGSYTPGHIPLSALYDKAHPADRVHSQTWYRKTAQRVMAKVQYNFGVWYYNGYHLLKDHNLALEWYRRAAAQGLAEAQDAIGVMFMQGEGVSQDYQQALAWYRKAARQGLPAAQTHLGIMSAFGRDVAQSDRQAIAWYRKAAKQDFAKAQYQLGVAYSTGRGVPENSRNALKWYLKAAEQGFTPAQSALGEIYAHGRQGVPKDNKQAYIWYYMASMYTEKSKDDCSALIAERNRLKGTLTPDQLSETYAAFNLIWRKIDQSKEAKKIARKKY	failed
MLRQSMNDYFEQPWYLTYADAERLSDLRDETLTLRDEEVTGHVPTEVEYEELQQVNDELAQRIGDMLKVHKEQGAAIDLALVLRDYLASHPRTHHFDLARMVVDQAVRLGYSESDYRAIQPDWTAINDFGAKVQANVIDRYLEHHHHHH	not failed
